# Measured values published in US6027877, “Use of immobilized mismatch binding protein for detection of mutations and polymorphisms, purification of amplified DNA samples and allele identification” (Gene Check, Inc.).
# T1: MutS (Escherichia coli, UniProt P23909 P23909:1-853)
# T1 sequence: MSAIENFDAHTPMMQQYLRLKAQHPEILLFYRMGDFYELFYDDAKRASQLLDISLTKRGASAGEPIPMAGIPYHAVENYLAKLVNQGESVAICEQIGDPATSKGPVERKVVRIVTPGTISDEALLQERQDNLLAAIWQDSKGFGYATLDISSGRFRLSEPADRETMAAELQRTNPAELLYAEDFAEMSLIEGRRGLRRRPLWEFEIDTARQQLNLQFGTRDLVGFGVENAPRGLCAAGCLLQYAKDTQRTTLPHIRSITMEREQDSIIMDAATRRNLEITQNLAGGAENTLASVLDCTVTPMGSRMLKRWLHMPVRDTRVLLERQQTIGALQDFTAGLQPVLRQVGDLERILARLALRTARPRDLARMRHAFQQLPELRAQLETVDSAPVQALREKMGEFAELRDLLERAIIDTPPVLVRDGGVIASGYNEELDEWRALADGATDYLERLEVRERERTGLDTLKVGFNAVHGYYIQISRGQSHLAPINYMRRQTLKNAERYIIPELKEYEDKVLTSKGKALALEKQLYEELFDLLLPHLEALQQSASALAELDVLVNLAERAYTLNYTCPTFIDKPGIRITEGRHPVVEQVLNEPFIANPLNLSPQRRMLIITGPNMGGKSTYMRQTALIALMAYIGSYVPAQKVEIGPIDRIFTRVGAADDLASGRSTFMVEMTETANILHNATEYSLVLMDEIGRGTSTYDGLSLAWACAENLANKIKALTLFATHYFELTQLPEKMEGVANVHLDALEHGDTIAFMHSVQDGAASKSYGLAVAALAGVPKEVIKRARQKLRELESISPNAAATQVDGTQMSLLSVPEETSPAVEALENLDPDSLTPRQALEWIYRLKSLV
# How the values were obtained:
# MutS [1] = biological target: T1, MutS; assay: no detectable binding even with 200 ng; same buffer, 5 mM MgCl2, room temperature; conditions: tags: adsorbed on nitrocellulose (0.45 um, Schleicher & Schuell); perfect duplex
# Protocol: (§1) Purified MBP, E. coli MutS, at a concentration of 0.5 μg/10 μl reaction buffer was spotted on the nitrocellulose paper in each well. The wells were incubated at room temperature, and the remaining liquid was pulled through with vacuum. Each well was washed twice with 100 μl reaction buffer by adding the solution to the well and then pouring it out. After the second wash, the remaining solution was pulled through the vacuum.
# (§2) Biotinylated oligonucleotides, in 20 μl reaction buffer containing 1% BSA, were added to each well. After 30 minutes at room temperature, remaining liquid was poured out. Each well was washed with 5×100 μl reaction buffer by adding the solution to the well and then pouring it out. After the fifth wash, the remaining solution was pulled through by vacuum.
# (§3) The presence of biotin was detected by its binding of Streptavidin. A 100 μl volume of Streptavidin-conjugated HRP (Pierce Chemicals) at a concentration of […] in reaction buffer +1% BSA was added to each well. After 2 hours at room temperature, the solution was poured out and each well washed with 5×100 μl reaction buffer by adding the solution and then pouring it out. After the fifth wash, the remaining solution was pulled through with vacuum.
# MutS [2] = biological target: T1, MutS; assay: dot blot with immobilized MutS, streptavidin-HRP ECL; as little as 0.2 ng detected; 20 mM Tris pH 7.6, 5 mM MgCl2, 1% BSA, room temperature; conditions: tags: adsorbed on nitrocellulose (0.45 um, Schleicher & Schuell); single G:T mismatch
# Protocol: as §1, §2, §3
# MutS [3] = biological target: T1, MutS; assay: competition; competition clearly visible with 50 ng against 5 ng biotinylated mismatch 30-mer; conditions: tags: adsorbed on nitrocellulose (0.45 um, Schleicher & Schuell); single G:T mismatch
# Protocol: as §1, §2
# In competition studies, the DNA binding was as described above, except that a constant amount of biotinylated mismatch-containing oligonucleotide (5 ng) was mixed with varying amounts of unlabeled DNA, with or without a mismatch, and added to the wells.
binder,measurement,setting,value
beta-globin 30-mer fully matched duplex (dsDNA) DNA 1: GCACCTGACTCCTGGGGAGAAGTCTGCCGT DNA 2: ACGGCAGACTTCTCCCCAGGAGTCAGGTGC,binding result,MutS [1],no binding
beta-globin 30-mer G:T mismatch duplex (dsDNA) DNA 1: GCACCTGACTCCTGGGGAGAAGTCTGCCGT DNA 2: ACGGCAGACTTCTCCTCAGGAGTCAGGTGC,binding result,MutS [2],binds
unlabeled beta-globin 30-mer G:T mismatch duplex (dsDNA) DNA 1: GCACCTGACTCCTGGGGAGAAGTCTGCCGT DNA 2: ACGGCAGACTTCTCCTCAGGAGTCAGGTGC,binding result,MutS [3],binds
